Data from patent US20080020377A1.

Key:
[1] = target: Tet repressor protein from class B [TetR(B)] (Escherichia coli) (UniProt P04483); assay: cell-based or functional assay
TetR(B/D)188-208 = TetR(B/D)188-208 (UniProt P0ACT4); assay: cell-based or functional assay

“PepBs1-TrxA (N-terminal fusion of pepBs1 to Escherichia coli thioredoxin A) (from UniProt P0AA25 2-109)” gave a factor of induction of β-galactosidase activity at 60 µM IPTG [1] of 40 fold and an induction of β-galactosidase activity against the C-terminal fusion TrxA-pepBs1 (fold higher than the C-terminal fusion) [1] of 3.

For “SbmC(C)-pepBs1 fusion protein (from UniProt P33012 1-157)”, the β-galactosidase activity at 60 µM IPTG (TetR(B/D)188-208) was 4 fold.

“TrxA-pepBs1 (C-terminal fusion of pepBs1 to Escherichia coli thioredoxin A) (from UniProt P0AA25 2-109)” was tested, and the factor of induction of β-galactosidase activity at 60 µM IPTG [1] was 14 fold.
